Experiment [1] deals with T1, recombinant HMG1 purified from E. coli as a calmodulin binding protein (CBP) fusion protein (human, UniProt A9RA84 1-215 (Papio anubis entry)).
T1 sequence: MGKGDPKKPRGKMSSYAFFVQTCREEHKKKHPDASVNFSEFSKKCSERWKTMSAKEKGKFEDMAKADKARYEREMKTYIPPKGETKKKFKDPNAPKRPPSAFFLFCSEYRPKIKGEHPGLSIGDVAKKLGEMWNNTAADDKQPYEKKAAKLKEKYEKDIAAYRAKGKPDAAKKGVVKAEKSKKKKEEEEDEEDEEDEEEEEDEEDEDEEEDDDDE
The experiment is described as follows: cell-based or functional assay.

For experiment [2], the target named is T1, recombinant HMG1 purified from E. coli …. The experiment is described as follows: ELISA, rHMG1 preincubated with antibody, coated RAGE-Fc. On the procedure:
HMG1 binding to RAGE-Ig by ELISA: 50 μl/well of RAGE-Fc fusion protein at 5 μg/ml in PBS was added to each well of an ELISA plate and incubated overnight at 4° C. The plate was then blocked with 200 μl of 5% milk at 37° C. for 1 hr and washed 3× with PBS/Tween. 50 μl/well of diluted HMGB1 solution. For dose curves, HMGB1 concentrations started at 4 ug/ml in PBS. For antibody blocking the HMGB1 was preincubated in another plate with human anti-HMG1 antibodies or buffer, then transferred to the RAGE-coated plate. The plates were then incubated at room temperature for 2 hours and washed 3×. To detect any HMG1 bound to the immobilized RAGE-Fc a mixture of biotinylated mouse anti-HMG1 mAbs (10D4, 4H11, 3E10 and 5C12) each at 1 ug/ml, total Ab: 4 ug/ml, were added to each well and the plate was incubated for 1 hour at room temperature. The plate was then washed and Strepavidin-HPR was added to each well and incubated 15 min. The plate was then washed 3× and blotted dry. 100 μl of TMB developing agent was added and the plate read at 650 nm. Values were calculated as percent of inhibition with HMG1 alone equal to 0% inhibition. The data in FIG. 9 and summarized in Table 1 represent the average of two separate experiments.
A general note: An ELISA detects its analyte on a solid surface through an enzyme-linked reagent.

Experiment [3] has the same target. In words: BIAcore, mAb immobilized, HMG1 injected, steady-state model. An outline of the steps: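 Each mAb amine-coupled to a CM5 chip beside a reference flow cell. Twofold serial dilutions of recombinant HMG1 were injected at slow flow, and surfaces regenerated with 1M NaCl-50 mM NaOH. Affinity was derived from binding curves fitted to a steady-state model.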
For orientation: Surface plasmon resonance follows binding to a sensor surface in real time, without labels.

Experiment [4] addresses T2, HMG2 (UniProt P40673 2-209, limits assumed).
T2 construct: also called HMGB2; HMBG2
T2 sequence (looked up): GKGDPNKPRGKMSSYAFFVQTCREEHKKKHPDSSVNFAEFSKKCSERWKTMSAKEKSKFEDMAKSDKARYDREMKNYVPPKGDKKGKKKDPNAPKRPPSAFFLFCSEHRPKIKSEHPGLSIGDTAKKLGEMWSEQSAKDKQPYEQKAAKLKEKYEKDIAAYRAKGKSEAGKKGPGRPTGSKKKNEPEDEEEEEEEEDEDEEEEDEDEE
In words: ELISA, wells coated with HMGB2 at 5 ug/mL, OD 490. On the procedure: Binding to HMG1 vs. HMG2: Ultra high-binding ELISA plates (ThermoLab systems, #3855) were coated with either 5 ug/mL of Calf thymus HMGB1 or HMBG2 diluted in 10 mM Phosphate buffered saline (PBS), pH 7.2 and incubate overnight at 4 degrees. The plates were washed twice with Ca and Mg free PBS and 100 microliters of anti-HMGB1 antibody diluted in 10 mM PBS, pH 7.2+1% bovine serum albumin (BSA) to a final concentration of 10 ug/mL was added to each well and the plates were incubated 1 hour at room temperature. The wells were washed three times with 100 μl of PBS, pH 7.2. HRP labeled goat-anti-human IgG Kappa-chain (KPL, #14-10-10) and goat-anti-human IgG Lambda-chain (KPL, #14-10-11) were diluted in 10 mM PBS+1% BSA 1:1000 and 100 μl were added to each well and incubated for 1 hour at room temperature. The wells were then washed three times with 100 μl of PBS, pH 7.2. OPD substrate (Pierce chemical company, #34006) was prepared following the manufacturers instructions and 100 μl of prepared substrate was added to each well and the plates incubated at room temperature in the dark for 20-30 minutes. The reaction was stopped with the addition of 100 μl of 2M H₂SO₄, and the plates read on a plate reader at a wavelength of 490 nm.

The target in experiment [5] is T3, HMG1 B Box peptide amino acids 150-183.
T3 peptide: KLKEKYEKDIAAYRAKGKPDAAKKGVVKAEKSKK
The experiment is described as follows: ELISA, wells coated with HMG1 B Box peptide 150-183 at 10 ug/ml. An outline of the steps: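 Biotinylated peptides captured on avidin-coated wells (1% BSA block, 30 min, room temperature), then antibodies added in serial dilution from 10 μg/ml; for the coated-peptide format, plates blocked with 4% milk/PBS 1 h at 37 °C. Bound antibody detected with anti-human IgG-HRP and TMB, absorbance at 450 nm.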

Where only a bound is given, the exact number is not on record here.

The source of these data is patent US20080311122A1 (AstraZeneca / MedImmune, published 2008).

One may read the Kd as the constant that tells how readily two partners part at equilibrium.

B1: anti-HMG1 antibody S2 (antibody, V domains shown)
VH: EVQLLESGGGLVQPGGSLRLSCAASGFTFSGYMMVWVRQAPGKGLEWVSRISPSGGQTGYADSVKGRFTISRDNSKNTLYLQMNSLRAEDTAVYYCAREEGGSYGAFDIWGQGTMVTVSS
VL: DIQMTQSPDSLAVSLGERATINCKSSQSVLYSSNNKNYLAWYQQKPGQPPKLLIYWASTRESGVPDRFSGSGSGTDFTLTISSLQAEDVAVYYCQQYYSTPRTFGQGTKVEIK
notes: also called ATCC PTA-6142
Consider B1, for which, in experiment [1], the “IC50, inhibition of rHMG1 stimulated IL-1β release from human PBMC” value turned out to be 0.22 µg/mL; the “IC50, inhibition of rHMG1 stimulated IL-6 release from human PBMC” value stood at 0.163 nM; the “IC50, inhibition of rHMG1 stimulated TNF-α release from human PBMC” value was found to be 0.0642 µg/mL. Also, the “percent inhibition of HMG1 binding to RAGE-Fc” value (shortened to “percent inhibition”) in experiment [2] is at least 35%. Also, the Kd in experiment [3] was determined as 36 nM. Also, in experiment [4], the binding result was “no binding (tested: 10 ug/mL (not on the sheet))”. Besides, the binding result in experiment [5] is on record as “no binding (tested: 10 ug/ml (log 1.00))”.

B2: anti-HMG1 antibody S16 (antibody, V domains shown)
VH: EVQLLESGGGLVQPGGSLRLSCAASGFTFSWYSMLWVRQAPGKGLEWVSYISPSGGFTNYADSVKGRFTISRDNSKNTLYLQMNSLRAEDTAVYYCARWDYNSGWYYDHWGQGTLVTVSS
VL: DIQMTQSPDTLSLSPGERATLSCRASQSVNSRNLAWYQQKPGQAPRLLIYGASTRATGIPDRFSGSVSGTEFTLTISSLQPDDFATYYCQQYNSYFTFGQGTKLEIK
notes: also called ATCC PTA-6259
Take B2: in experiment [1], the “IC50, inhibition of rHMG1 stimulated IL-1β release from human PBMC” value was 6.05 µg/mL; the “IC50, inhibition of rHMG1 stimulated IL-6 release from human PBMC” value worked out at 0.56 nM; the “IC50, inhibition of rHMG1 stimulated IL-12 release from human PBMC” value was 1.24 µg/mL; the “IC50, inhibition of rHMG1 stimulated TNF-α release from human PBMC” value came out at 1.44 µg/mL. The “percent inhibition” value in experiment [2] is at least 35%. The Kd in experiment [3] came out at 23 nM.

B3: anti-HMG1 antibody G4 (antibody, V domains shown)
VH: EVQLLESGGGLVQPGGSLRLSCAASGFTFSWYDMTWVRQAPGKGLEWVSSISPSGGYTKYADSVKGRFTISRDNSKNTLYLQMNSLRAEDTAVYYCTTEFYDYLDVWGKGTTVTVSS
VL: DIQMTQSPGTLSLSPGEGATLSCRASQSVSSTYLAWYQQKPGQAPRLLIYEASKRATGTPARFSGSGSGTDFTLSISSLEPEDFAVYYCQHRHNWPPQWTFGQGTKVEVK
notes: also called ATCC PTA-6258
B3: in experiment [1], the “IC50, inhibition of rHMG1 stimulated IL-1β release from human PBMC” value was 5.01 µg/mL; the “IC50, inhibition of rHMG1 stimulated IL-6 release from human PBMC” value was 0.9 nM; the “IC50, inhibition of rHMG1 stimulated IL-12 release from human PBMC” value was 0.715 µg/mL; the “IC50, inhibition of rHMG1 stimulated TNF-α release from human PBMC” value worked out at 5.51 µg/mL. For the same molecule, the Kd in experiment [3] was 30 nM. Also, the binding result in experiment [4] was “no binding (tested: 10 ug/mL (not on the sheet))”. In experiment [5], the binding result is listed as “no binding (tested: 10 ug/ml (log 1.00))”.

B4: anti-HMG1 antibody S6 (antibody, V domains shown)
VH: EVQLLESGGGLVQPGGSLRLSCAASGFTFSWYDMSWVRQAPGKGLEWVSRISPSGGYTMYADSVKGRFTISRDNSKNTLYLQMNSLRAEDTAVYYCARLEVGATSGGTAFDIWGQGTMVTVSS
VL: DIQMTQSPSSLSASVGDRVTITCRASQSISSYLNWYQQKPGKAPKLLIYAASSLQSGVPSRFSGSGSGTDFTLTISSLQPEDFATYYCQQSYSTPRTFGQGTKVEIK
notes: also called ATCC PTA-6143
Regarding B4, in experiment [1], the “IC50, inhibition of HMG1 stimulated NO release from macrophages” value turned out to be 4.15 µg/mL; the “IC50, inhibition of rHMG1 stimulated IL-1β release from human PBMC” value came to 0.0232 µg/mL; the “IC50, inhibition of rHMG1 stimulated IL-6 release from human PBMC” value stood at 0.174 nM; the “IC50, inhibition of rHMG1 stimulated TNF-α release from human PBMC” value is 0.0182 µg/mL. Also, in experiment [2], the “percent inhibition” value is at least 35%. Also, the Kd in experiment [3] turned out to be 39 nM. In addition, the binding result in experiment [4] was “no binding (tested: 10 ug/mL (not on the sheet))”. The binding result in experiment [5] is given as “no binding (tested: 10 ug/ml (log 1.00))”.
